B1: TPR t1 (parent)
chain: GACCAAUCUGCCCUCAGAGCUCGAGAACAUCUUCGGAUGCAGAGGAGGCAGGCUUCGGUGGCGCGAUAGCGCCAACGUCCUCAACCUCCAAUGCAUCCCACCACAUGAUGAUGCCUGAAGAGCCUUGGUUUUUUG

Variants of: B1
Test: polymerase ribozyme fitness, log enrichment relative to wild type (log ratio); higher = more active; in vitro selection for triplet polymerase activity
Method in brief: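 Only genotypes with ≥10 input reads and ≥1 read per output were kept after Illumina sequencing of input and output libraries. These libraries were PCR-built, transcribed mutants of each subunit of a heterodimeric triplet polymerase ribozyme, each put through one triplicate in vitro selection round with frozen incubation at −7 °C, gel excision of extended constructs, streptavidin-bead capture and RT-PCR. Fitness is a logarithmic ratio of genotype enrichment to wild-type enrichment, from inverse-variance-weighted replicate averages, with the logarithm in base 2.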

Variant	polymerase ribozyme fitness (log ratio)
C98A G120A	-3.18
U96A G120C	0.228
C94A U129C	-0.753
C101G C114A	-3.3
U96C U126C	-1.7
C101A U106C G110C U134G	-4.82
A95C A108G G110U	-4
C101A U126G G127C	-2.49
C98U U125G	-2.35
C94A C101G	-2.45
C94A G128A U129G	-3.11
U96A U131G	-1.96
C104U G110A	-0.458
C99A G120C	-3.95
C99A G127C	-5.7
C104G U106A C124G	-3.47
C98A A111U	-5.78
C97U U129A	-2.18
C94A G113A	-0.888
A100U C101U C104A	-2.87
C101A G113A G122C	-1.6

Variant	polymerase ribozyme fitness (log ratio)
A95C U116C U129A U131C G135U	-3
A103U G113A	-3.81
C98A C123U	-4.06
C97U U106G	-2.7
C99U U132C	-3.53
U96C C123G	1.78
U96G U129C	-0.569
C94U G135U	-1.34
A100U A111G	0.222
C102A G135U	-3.13
A95C G120U	-0.765
C97G A119G	-2.68
C94G G113A	-3.13
C101G C115U	-3.55
C101U G110C	-3.42
U96G C98U	-3.02
C101U G117C	-3.39
U96G G113U	-3.21
C97U G110A	-1.67
U96A G113U	-3.61
C94U C115A	-0.137

Variant	polymerase ribozyme fitness (log ratio)
C102A C115G	-3.72
A100U G113C	-2.85
C99A U132C	-4.94
A95G C98G G120U	-6.09
C102A U130A	-3.46
C101U U116C A119G U129A	1.01
U96A C115A	-3.09
C101U A108U U109G	-6.14
C97U C123G U126A	0.329
C99U C115G	-4.9
C98A A100G C114A	-6.06
U96A G128C	-3.28
A100C G117A	-2.55
C101A C115U	-2.63
C94U C114U	-2.58
A100U U125G	-0.739
C99G G120A	-7.03
C101U U112A	0.284
C101U U112C	0.493
C98U U112A	-1.61
C97U U125A	-1.31

Variant	polymerase ribozyme fitness (log ratio)
C97U U125G	-1.25
C101U G107C	-6.63
C94G C123U	0.403
C94A G110U	-2.28
C102G U112A	-5.7
C97U G117A	-2.32
C102A G120U U130G	-2.39
C94A U112C U126G	-0.847
A100C U106A U132C	-0.19
A103G C115U U129G U133A	-5.83
C99A C102A U109A G127C	-6.24
A95G G117C	-3.87
C99A C102U	-4.82
C99U A121G	-0.804
C101U A121G U126A	1.07
A95C U106A C124U	1.29
C97U C98A	-4.41
C98U U116A A119G	-0.385
A95U A103G	-6.8
C101A C102A	-5
C97U U106A U132G U133A	0.00837
